The values below come from publication PMC4805248.

The target of data set [1] is T1, PgMntR (Porphyromonas gingivalis W50 (W83 locus PG1044)) (UniProt Q7MVL0).
T1 sequence: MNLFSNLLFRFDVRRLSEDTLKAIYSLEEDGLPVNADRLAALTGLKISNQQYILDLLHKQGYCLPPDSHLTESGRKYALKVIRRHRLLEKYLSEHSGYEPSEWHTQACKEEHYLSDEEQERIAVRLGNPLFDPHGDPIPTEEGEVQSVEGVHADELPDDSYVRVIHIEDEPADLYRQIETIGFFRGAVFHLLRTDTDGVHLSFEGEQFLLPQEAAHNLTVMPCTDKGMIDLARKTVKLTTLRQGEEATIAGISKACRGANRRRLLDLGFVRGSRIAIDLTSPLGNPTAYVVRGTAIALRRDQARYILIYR
The experiment in a line: EMSA. The settings on record: EMSA: 1 nM biotinylated DNA, 700-1000 nM protein, 90 mM Bis-Tris borate pH 6.8 (1 mM TCEP, 5 mM DTT) or 10 mM Tris-Cl pH 7.5 or Tris-acetate pH 6.8, 50 mM KCl …. For orientation: A gel shift assay detects complexes by their altered migration in electrophoresis.

Data set [2] deals with PgMntR 4Ala variant (D19A/C108A/E111A/H112A) (Porphyromonas gingivalis W50). The experiment in a line: AUC; sedimentation velocity; 10 or 60 uM protein in TBS (50 mM Tris-Cl, 150 mM NaCl, pH 7.5), 20 C, 40,000 rpm; without divalent metal, also with Mn2+ and with 2 mM TCEP; c(s) fit in SEDFIT.
For data set [3], the target named is PgMntR (Porphyromonas gingivalis manganese transport regulator orthologue, PG1044), recombinant wild type (Porphyromonas gingivalis W50). The data set is described as above.
The target of data set [4] is PgMntR C108E variant (Porphyromonas gingivalis W50). Described as above.
The target in data set [5] is PgMntR D19M variant (Porphyromonas gingivalis W50). Described as above.
For data set [6], the target named is PgMntR ΔFeoA2 (PgMntR without the final C-terminal FeoA domain) (Porphyromonas gingivalis W50). Described as above.

“GATAGCGCAAAAATACTAACTAAACCAATGAATAAACGAGAAATACAATTTATTATTAAAGAGACTGTTGCACAATAACCCTCTCCCCCTCTCATATTGATCAAGACAGACACAAGCATTGATTTGACGAAGAAAGGAGAGCTTCATGCAATCTCTCTGCAAACCTCAAGTAATCTGAAAAACACTTAAGAATCAGCTCTGCGGCAAAAGACTTCAATGAAAGTCCTATAAAATAGTTGCAAACAGCTGATAGTTAGCGCATTGATGGGAGC (double strand) [FB1p (feoB1 promoter)]”: the binding entry in data set [1] is given as “no binding”.

In general, stoichiometry N refers to a count of units in the complex or per binding partner. For the substance “PgMntR 4Ala variant (D19A/C108A/E111A/H112A) (natural protein)”, the stoichiometry N in data set [2] is 2.

In the case of “PgMntR (Porphyromonas gingivalis manganese transport regulator orthologue, PG1044), recombinant wild type (natural protein)”, in data set [3], the stoichiometry N was found to be 2.

On to PgMntR C108E variant (natural protein), for which the stoichiometry N in data set [4] is 2.

As for PgMntR D19M variant (natural protein), the stoichiometry N in data set [5] was 2.

For “PgMntR ΔFeoA2 (PgMntR without the final C-terminal FeoA domain) (domain or fragment)”, the stoichiometry N in data set [6] turned out to be 2.
